Several values for one entry are separate records, joined by “and”; a condition that tells them apart may be missing. Equal entries are not always repeated.
Key:
[1] = target: cpMVPvsvg vaults (MVP with an N-terminal cysteine rich peptide and a C-terminal VSVG tag); test: co-IP
[2] = target: cpMVP vaults (MVP with an N-terminal cysteine rich peptide); test: SAXS

Substance | stoichiometry N (HisT7MVP:cpMVPvsvg) [1] | percent of the protein mass as full vaults [2]
HisT7MVP vaults (MVP with N-terminal T7 tag) (from UniProt Q62667 1-861) (natural protein) | 0.8 | 
cpMVP vaults (MVP with an N-terminal cysteine rich peptide) (natural protein) |  | 46% and 49%

From PMC3020078
